Results taken from patent publication US20230218738A1 (Pfizer, published 2023).
Residue numbers refer to the chain shown, from its start.

T1: RSV F protein mutant pXCS849 (RSV A2, UniProt P03420 26-109)
T1 chain 1: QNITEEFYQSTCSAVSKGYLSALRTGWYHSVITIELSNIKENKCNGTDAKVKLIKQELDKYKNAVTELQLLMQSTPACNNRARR
T1 chain 2: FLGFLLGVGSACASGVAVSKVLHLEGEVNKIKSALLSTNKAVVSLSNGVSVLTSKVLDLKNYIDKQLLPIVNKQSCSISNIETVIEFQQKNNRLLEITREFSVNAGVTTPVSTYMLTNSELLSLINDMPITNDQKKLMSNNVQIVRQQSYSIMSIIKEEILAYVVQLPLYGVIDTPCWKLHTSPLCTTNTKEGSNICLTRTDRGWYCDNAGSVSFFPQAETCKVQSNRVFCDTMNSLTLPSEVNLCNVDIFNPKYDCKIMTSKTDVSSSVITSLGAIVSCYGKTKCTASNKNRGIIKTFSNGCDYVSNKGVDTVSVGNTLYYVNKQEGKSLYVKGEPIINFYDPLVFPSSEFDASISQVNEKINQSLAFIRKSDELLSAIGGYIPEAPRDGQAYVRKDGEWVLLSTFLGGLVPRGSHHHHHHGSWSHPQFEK

T2: RSV F protein mutant pXCS851 (RSV A2, UniProt P03420 26-109)
T2 chain 1: T1 chain 1
T2 chain 2: T1 chain 2 with S54I

T3: RSV F protein mutant pXCS852 (RSV A2, UniProt P03420 26-109)
T3 chain 1: T1 chain 1 with S30C, C78T
T3 chain 2: T1 chain 2 with C12I, L52C, I160V

B1: MPE8 (antibody, V domains shown)
VH: EVQLVESGGGLVKPGGSLRLSCAASGFTFSSYSMNWVRQAPGKGLEWVSSISASSSYSDYADSAKGRFTISRDNAKTSLFLQMNSLRAEDTAIYFCARARATGYSSITPYFDIWGQGTLVTVSS
VL: QSVVTQTPSVSGAPGQRVTISCTGSSSNIGAGYDVHWYQQLPGTAPKLLIYDNNNRPSGVPDRFSASKSGTSASLAITGLQAEDEADYYCQSYDRNLSGVFGTGTKVTVL
notes: also called MPEG
B2: AM22 (antibody, V domains shown)
VH: QVQLVQSGAEVKKPGATVKVSCKISGHTLIKLSIHWVRQAPGKGLEWMGGYEGEVDEIFYAQKFQHRLTVIADTATDTVYMELGRLTSDDTAVYFCGTLGVTVTEAGLGIDDYWGQGTLVTVSS
VL: EIVLTQSPGTLSLSPGERATLSCRASQIVSRNHLAWYQQKPGQAPRLLIFGASSRATGIPVRFSGSGSGTDFTLTINGLAPEDFAVYYCLSSDSSIFTFGPGTKVDFK

Columns and labels:
Test in all cases: BLI (Octet), F on anti-HIS tip, 20 nM mAb
[1] = target: RSV F protein mutant pXCS740 (RSV A2, UniProt P03420 26-109)
[2] = target: RSV F protein mutant pXCS754 (RSV A2, UniProt P03420 26-109)
[3] = target: RSV F protein mutant pXCS758 (RSV A2, UniProt P03420 26-109)
[4] = target: RSV F protein mutant pXCS760 (RSV A2, UniProt P03420 26-109)
[5] = target: RSV F protein mutant pXCS776 (RSV A2, UniProt P03420 26-109)
[6] = target: RSV F protein mutant pXCS779 (RSV A2, UniProt P03420 26-109)
[7] = target: T1, RSV F protein mutant pXCS849
[8] = target: T2, RSV F protein mutant pXCS851
[9] = target: T3, RSV F protein mutant pXCS852
[10] = target: RSV F protein mutant pXCS857 (RSV A2, UniProt P03420 26-109)
[11] = target: RSV F protein mutant pXCS883 (RSV A2, UniProt P03420 26-109)
[12] = target: RSV F protein mutant pXCS735 (RSV A2, UniProt P03420 26-109)
[13] = target: RSV F protein mutant pXCS876 (RSV A2, UniProt P03420 26-109)
[14] = target: RSV F protein mutant pXCS878 (RSV A2, UniProt P03420 26-109)
[15] = target: RSV F protein mutant pXCS879 (RSV A2, UniProt P03420 26-109)
[16] = target: RSV F protein mutant pXCS897 (RSV A2, UniProt P03420 26-109)

| Binder | Response (nm shift) [1] [nm] | Response (nm shift) [2] [nm] | Response (nm shift) [3] [nm] | Response (nm shift) [4] [nm] | Response (nm shift) [5] [nm] | Response (nm shift) [6] [nm] | Response (nm shift) [7] [nm] | Response (nm shift) [8] [nm] | Response (nm shift) [9] [nm] | Response (nm shift) [10] [nm] | Response (nm shift) [11] [nm] | Response (nm shift) [12] [nm] | Response (nm shift) [13] [nm] | Response (nm shift) [14] [nm] | Response (nm shift) [15] [nm] | Response (nm shift) [16] [nm] |
| --- | --- | --- | --- | --- | --- | --- | --- | --- | --- | --- | --- | --- | --- | --- | --- | --- |
| B1 | 0.546 | 0.676 | 0.816 | 0.151 | 0.127 | 0.232 | 0.908 | 1.02 | 1.13 | 1.09 | 0.704 | 0.375 | – | – | – | – |
| B2 | 0.172 | 0.298 | 0.273 | 0.121 | – | 0.125 | 0.43 | 0.508 | 0.565 | 0.563 | 0.233 | – | 0.268 | 0.324 | 0.351 | 0.406 |
